Like-named read-outs stand apart in the source and are kept apart here.
Legend:
Test in all cases: cell-based or functional assay
[1] = molecular target: T1, HLA-A*02-presented SPINK2-001 on target cells (T2 cells loaded with SPINK2-001 peptide); A375 cells … (human)
[2] = molecular target: T1, HLA-A*02-presented SPINK2-001 on target …; remark: listed apart in the source
[3] = molecular target: T1, HLA-A*02-presented SPINK2-001 on target …; remark: listed apart in the source

B1: TCR R40P1C2, alpha and beta chains expressed in human primary CD8+ T-cells by RNA electroporation (TCR, V domains shown)
V domain 1: QTVTQSQPEMSVQEAETVTLSCTYDTSESDYYLFWYKQPPSRQMILVIRQEAYKQQNATENRFSVNFQKAAKSFSLKISDSQLGDAAMYFCAYLNYQLIWGAGTKLIIKP
V domain 2: EPEVTQTPSHQVTQMGQEVILRCVPISNHLYFYWYRQILGQKVEFLVSFYNNEISEKSEIFDDQFSVERPDGSNFTLKIRSTKLEDSAMYFCASSEMTAVGQYFGPGTRLTVTE
[1]
  EC50 (read off the curve), IFNγ release, donor TCRA-0024: ~3 nM

B2: TCR R59P2A7, alpha and beta chains expressed in human primary CD8+ T-cells by RNA electroporation (TCR, V domains shown)
V domain 1: QKEVEQNSGPLSVPEGAIASLNCTYSDRGSQSFFWYRQYSGKSPELIMSIYSNGDKEDGRFTAQLNKASQYVSLLIRDSQPSDSATYLCAVQPHDMRFGAGTRLTVKP
V domain 2: SQTIHQWPATLVQPVGSPLSLECTVEGTSNPNLYWYRQAAGRGLQLLFYSVGIGQISSEVPQNLSASRPQDRQFILSSKKLLLSDSGFYLCAWSGLVAEQFFGPGTRLTVLE
[2]
  EC50 (read off the curve), IFNγ release, donor TCRA-0023: ~10 nM
  EC50 (read off the curve), IFNγ release, donor TCRA-0024: ~50 nM

B3: TCR R44P3E7, alpha and beta chains expressed in human primary CD8+ T-cells by RNA electroporation (TCR, V domains shown)
V domain 1: RGEDVEQSLFLSVREGDSSVINCTYTDSSSTYLYWYKQEPGAGLQLLTYIFSNMDMKQDQRLTVLLNKKDKHLSLRIADTQTGDSAIYFCAEINNNARLMFGDGTQLVVKP
V domain 2: AAGVIQSPRHLIKEKRETATLKCYPIPRHDTVYWYQQGPGQDPQFLISFYEKMQSDKGSIPDRFSAQQFSDYHSELNMSSLELGDSALYFCASSPPDQNTQYFGPGTRLTVLE
[3]
  EC50 (read off the curve), IFNγ release, donor TCRA-0023: ~0.6 nM
  EC50 (read off the curve), IFNγ release, donor TCRA-0024: ~1 nM
